Measured values reported in paper PMC8867921.

Target: nucleosome N(13,91) (chicken)
Test: single-particle FRET

- content of PARP1-nucleosome complexes at 50 nM PARP1: 45%
Substance: poly(ADP-ribose) polymerase 1 (from UniProt P09874 1-1014) (enzyme)
